This is an account of results in article PMC4861493, “Functional Evolution in Orthologous Cell-encoded RNA-dependent RNA Polymerases*” (The Journal of Biological Chemistry, 2016).

This data set concerns the molecule itself. The data set can be described thus: crystal structure; QDE-1^Tte catalytic fragment apoenzyme, crystals grown at 30 °C in 100 mM Tris-HCl pH 8.0, 75 mM NaCl, 10% PEG 10,000, 5 mM MgCl2, 6 mM spermine; 3.19 Å; two non-crystallographic dimers (A/B, C/D) in the asymmetric unit.

B1: QDE-1^Tte catalytic fragment (RNA-dependent RNA polymerase QDE-1 of Thielavia terrestris) (enzyme)
chain: EVYARLQNIWPKFPRWLHAAPLALAWELTRICLHCKVDLEDPTLRYDPSWATSDMAALWRSLTQLDVFRGKSFPERPSAEAFAAALTGNFESRGNTVVLSASLEFNPSKTGPLFLLDMKPLRFDEGCRLTRRFGPDRFLEVLVPSPTALNAPSILKDGGAAQVIRWLTEKPHSLVGRQWQAFYTKDAGYRKPARELRLGPDAKATFKERVHFFAERGHDFRPAPLRTRAQLPPESPSRRRTEIRVSEMLDWLLQLEQNEYQPHLKLFSRIQLGLSKTFPTVTFEPNQIRHRTDDILSPAGKIMNDGIGRMSRSVARKIRDALGLSDIPSAIQGRMGSAKGMWLMDVADAGDDDWIETYPSQRKWKCDDADALHRTLEIRSVSTELKPAALNLQFLPVLEDRAKDKARMRRAIAARLMNDLKKQFDSQKAAVERPLQFRQWVNECTNSRSERVRHGQVPFLGGLPENKGEVLSFLLNSGFDRRQKYIQDLAFDLQKQRCEVLRTKLNIHVGRSAYMFMVVDFWGVLEENEVHVGFSSKFRDDVDDTTYMLLTDCDVLVARSPAHFPSDIQKVRAVFKPQLHALKDVIVFPAKGDIPLADKLSGGDYDGDMAWVCWDPDIVENFTNADMPKEPDLSAYLGKDKTTFGELVRDTGRTGAAARHEAVYDMINKSFQFAMQPNYLGICTNYKERVCYHNNSVSDGVALLLSTLVGKLVDQSKQGILFDAASWDRLRRERLGGRMSVEDPAYKGDVWAGAGEPRHIVDYLKFAVAKPTIDRELEELHKVMQASRRAGPDDDAAAHSWDPDLAVYFENFKALTAESRSLRAVLEALQNALGAVEHEWKVLMSKGSSSSLTYPEKVRQLHAKWCAIEPRAVGRAGSNRLDAKTAALLEQPFLADRGGAGTSYWALLRASTAFKAYYKTNPKFVWQMAGAQLAFIKAQMSSPGGGGGGGSDGMPLLVTPLMYAGLAPDGRFVKQYLARLECDGSQYPDDDLEGDGEDGGGGGGRGDDVD
notes: QDE-1 ortholog of Thielavia terrestris, catalytic fragment; synthetic ORF from Genscript cloned into pFB-LIC-Bse; the monomer used for crystallization has 1,034 residues including the His tag and the tobacco etch virus protease cleavage site; numbers count on: the catalytic fragment; A TEV protease cleavage site lies between the His tag and the fragment and was not cut in the crystallized …
As for B1, the stoichiometry N (commonly the number of molecules, sites or subunits per partner or assembly) is 2.
